Experimental data reported in paper PMC3988563.
Each block holds one substance with its values, some of them ahead of it.

Tests used:
[1] = biological target: Ribosome termination complex (70S ribosomes, fMet-STOP mRNA and fMet-tRNA^fMet) (E. coli); assay: other fluorescence titration; 1 nM fluorescein-labeled A220C RF1 titrated with ribosome complexes (0-52 nM) in 1X 219-HEPES buffer; excitation 491 nm, emission 515 nm; quadratic fit
[2] = biological target: Ribosome termination complex (70S ribosomes, fMet-STOP mRNA and fMet-tRNA^fMet) (E. coli); assay: stopped-flow fluorescence; Fl-RF1 preincubated with ribosome complex, chased with excess unlabeled RF1, no RF3; Buffer 219 Tris pH 7.6, 26 C; double exponential fit, faster phase
[3] = biological target: Ribosome termination complex (70S ribosomes, fMet-STOP mRNA and fMet-tRNA^fMet) (E. coli); assay: stopped-flow fluorescence; as a12, with RF3 preincubated with 1 mM GTP in the chase mixture
[4] = biological target: Ribosome termination complex (70S ribosomes, fMet-STOP mRNA and fMet-tRNA^fMet) (E. coli); assay: stopped-flow fluorescence; with RF3 preincubated with 1 mM GDP in the chase mixture
[5] = biological target: Ribosome termination complex formed with wild-type RF1 (E. coli) (UniProt P0A7I0); assay: quick spin gel-filtration assay (Sephadex G-100) with SYPRO Ruby staining; as a8, no nucleotide added to RF3 (copurified with GDP 1:1; 'apo' assay, no free GDP or GTP)
Chain of Ribosome termination complex formed with wild-type RF1 (E. coli) (P0A7I0 whole entry, looked up, one chain of several): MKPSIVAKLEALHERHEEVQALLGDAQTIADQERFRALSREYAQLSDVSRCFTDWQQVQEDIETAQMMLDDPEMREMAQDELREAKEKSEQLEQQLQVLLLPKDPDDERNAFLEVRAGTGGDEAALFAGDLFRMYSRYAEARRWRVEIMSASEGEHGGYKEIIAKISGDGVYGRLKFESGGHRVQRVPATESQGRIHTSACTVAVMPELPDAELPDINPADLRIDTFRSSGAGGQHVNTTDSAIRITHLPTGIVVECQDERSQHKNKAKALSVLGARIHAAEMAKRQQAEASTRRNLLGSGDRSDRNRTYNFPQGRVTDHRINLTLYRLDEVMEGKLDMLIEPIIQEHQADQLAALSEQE

[6] = biological target: Ribosome termination complex formed with GAQ-RF1 (E. coli) (UniProt P0A7I0); assay: quick spin gel-filtration assay (Sephadex G-100) with SYPRO Ruby staining; RF3 preincubated with 2 mM GDPNP, mixed with release complexes (10 nM to 2 uM, threefold excess RF1), 10 min 37 C, Buffer 219 HEPES pH 7.6; quadratic fit; KD with wild-type RF1 complexes is called apparent (K_D,app)
Chain of Ribosome termination complex formed with GAQ-RF1 (E. coli) (P0A7I0 whole entry, looked up, one chain of several): as above

[7] = biological target: Ribosome termination complex formed with wild-type RF1 (E. coli) (UniProt P0A7I0); assay: as above
[8] = biological target: Ribosome termination complex formed with GAQ-RF1 (E. coli) (UniProt P0A7I0); assay: quick spin gel-filtration assay (Sephadex G-100) with SYPRO Ruby staining; as a8, RF3 preincubated with 2 mM GDP
[9] = biological target: Ribosome termination complex formed with wild-type RF1 (E. coli) (UniProt P0A7I0); assay: as above

Chain of His-tagged RF3 (class 2 release factor) (P0A7I4 whole entry): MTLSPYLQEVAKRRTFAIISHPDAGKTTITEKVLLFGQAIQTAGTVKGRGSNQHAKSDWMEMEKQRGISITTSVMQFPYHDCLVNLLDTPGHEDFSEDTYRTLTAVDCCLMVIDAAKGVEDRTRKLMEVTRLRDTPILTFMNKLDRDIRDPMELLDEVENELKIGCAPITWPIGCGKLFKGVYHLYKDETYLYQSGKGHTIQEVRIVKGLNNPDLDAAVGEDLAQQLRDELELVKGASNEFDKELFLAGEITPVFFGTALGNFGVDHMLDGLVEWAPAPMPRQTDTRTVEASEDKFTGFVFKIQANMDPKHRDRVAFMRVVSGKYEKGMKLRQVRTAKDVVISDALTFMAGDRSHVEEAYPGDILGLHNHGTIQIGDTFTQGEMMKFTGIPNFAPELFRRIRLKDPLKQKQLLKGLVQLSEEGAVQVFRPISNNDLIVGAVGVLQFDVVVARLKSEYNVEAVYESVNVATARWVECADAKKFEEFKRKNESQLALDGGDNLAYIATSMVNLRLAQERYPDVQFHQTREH

- Kd [1]: 2.5 nM
Substance: Fluorescein-labeled A220C RF1 (from UniProt P0A7I0 1-360) (natural protein)

- koff [2]: 0.09 s⁻¹
- koff in the presence of RF3:GTP [3]: 0.14 s⁻¹
Substance: Fluorescein-labeled GAQ-RF1 (single-cysteine L82C or A220C) (from UniProt P0A7I0 1-360) (natural protein)

- koff in the presence of RF3:GDP [4]: 0.3 s⁻¹
- koff [2]: 0.005 s⁻¹
- koff in the presence of RF3:GTP [3]: 2.9 s⁻¹
Substance: Fluorescein-labeled single-cysteine RF1 (either L82C or A220C) (from UniProt P0A7I0 1-360) (natural protein)

- Kd [5]: 36 nM
- Kd [6]: 10 nM
- Kd [7]: 50 nM
- Kd [8]: 1000 nM
- Kd [9]: 430 nM
Substance: His-tagged RF3 (class 2 release factor) (from UniProt P0A7I4 1-529) (natural protein)
